Test results from publication PMC5125647, “Multivalent Interactions of Human Primary Amine Oxidase with the V and C2_(2) Domains of Sialic Acid-Binding Immunoglobulin-Like Lectin-9 Regulate Its Binding and Amine Oxidase Activity” (PLoS ONE, 2016).
Positions count from the first letter of the chain named. Numbers in names are those of the source.

T1: human primary amine oxidase (hAOC3) (human, UniProt Q16853 1-763, topaquinone (TPQ) cofactor, modified from Tyr471; N-glycans attached to N137, N232, N294, N592, N618 and N666, with sialic acids)
T1 construct: human primary amine oxidase (AOC3, VAP-1); In the functional assays hAOC3 stood on live CHO-hAOC3 cells or in CHO-hAOC3 lysate; also called vascular adhesion protein-1; VAP-1
T1 sequence: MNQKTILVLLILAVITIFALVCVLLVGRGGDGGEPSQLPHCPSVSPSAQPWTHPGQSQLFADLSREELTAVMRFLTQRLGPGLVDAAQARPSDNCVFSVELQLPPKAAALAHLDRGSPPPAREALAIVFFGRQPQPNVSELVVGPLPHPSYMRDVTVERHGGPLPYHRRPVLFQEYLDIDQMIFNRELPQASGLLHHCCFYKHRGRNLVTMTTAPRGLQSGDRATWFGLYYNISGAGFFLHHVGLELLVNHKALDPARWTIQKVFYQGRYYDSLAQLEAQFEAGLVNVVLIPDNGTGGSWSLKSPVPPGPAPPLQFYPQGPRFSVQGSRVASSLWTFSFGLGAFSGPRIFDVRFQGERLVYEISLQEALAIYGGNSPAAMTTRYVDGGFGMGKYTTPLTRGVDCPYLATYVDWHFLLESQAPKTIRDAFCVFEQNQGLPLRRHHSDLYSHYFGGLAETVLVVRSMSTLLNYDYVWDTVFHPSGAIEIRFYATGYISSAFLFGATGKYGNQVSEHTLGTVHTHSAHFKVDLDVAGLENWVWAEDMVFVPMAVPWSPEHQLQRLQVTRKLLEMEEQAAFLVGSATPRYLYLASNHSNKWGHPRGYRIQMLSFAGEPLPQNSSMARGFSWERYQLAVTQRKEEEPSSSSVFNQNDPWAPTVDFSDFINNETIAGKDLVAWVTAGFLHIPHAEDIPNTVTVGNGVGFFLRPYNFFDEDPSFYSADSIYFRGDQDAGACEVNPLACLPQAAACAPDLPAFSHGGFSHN

B1: Siglec-9-EC (extracellular region of sialic acid-binding immunoglobulin-like lectin-9, V-C2_(12); residues 26-348) (domain or fragment, UniProt Q9Y336 26-348, looked up)
chain: QSSVTVQEGLCVHVPCSFSYPSHGWIYPGPVVHGYWFREGANTDQDAPVATNNPARAVWEETRDRFHLLGDPHTKNCTLSIRDARRSDAGRYFFRMEKGSIKWNYKHHRLSVNVTALTHRPNILIPGTLESGCPQNLTCSVPWACEQGTPPMISWIGTSVSPLDPSTTRSSVLTLIPQPQDHGTSLTCQVTFPGASVTTNKTVHLNVSYPPQNLTMTVFQGDGTVSTVLGNGSSLSLPEGQSLRLVCAVDAVDSNPPARLSLSWRGLTLCPSQPSNPGVLELPWVHLRDAAEFTCRAQNPLGSQQVYLNVSLQSKATSGVTQG
notes: Siglec-9, UniProtKB Q9Y336, extracellular region with the V, C2_(1) and C2_(2) domains, residues 26-348; The construct has a secretion signal for insect cell production before the tags; The His tag is called cleavable, but no cleavage is described; Dimer by SEC retention (85 kDa); Insect-cell glycosylation; eight putative N-glycosylation sites; Cloning details are in S1 Text; also called WT; …
B2: Siglec-9-EC/R284S (domain or fragment, UniProt Q9Y336 26-348, looked up)
chain: B1 chain with R259S
notes: Siglec-9, UniProtKB Q9Y336, extracellular region, residues 26-348, with R284S in the C2_(2) domain; Made from the Siglec-9-EC production vector by site-directed mutagenesis; also called R284S mutant; source: baculovirus, Tn5 (High Five) insect cells, secreted into the medium, purified (Ni2+ resin, Superdex 200 gel filtration)
B3: Siglec-9-EC/R290S (domain or fragment, UniProt Q9Y336 26-348, looked up)
chain: B1 chain with R265S
notes: Siglec-9, UniProtKB Q9Y336, extracellular region, residues 26-348, with R290S in the C2_(2) domain; Made from the Siglec-9-EC production vector by site-directed mutagenesis; also called R290S mutant; source: baculovirus, Tn5 (High Five) insect cells, secreted into the medium, purified (Ni2+ resin, Superdex 200 gel filtration)
B4: Siglec-9-ΔV (C2_(12); residues 145-348) (domain or fragment, UniProt Q9Y336 145-348, looked up)
chain: RPNILIPGTLESGCPQNLTCSVPWACEQGTPPMISWIGTSVSPLDPSTTRSSVLTLIPQPQDHGTSLTCQVTFPGASVTTNKTVHLNVSYPPQNLTMTVFQGDGTVSTVLGNGSSLSLPEGQSLRLVCAVDAVDSNPPARLSLSWRGLTLCPSQPSNPGVLELPWVHLRDAAEFTCRAQNPLGSQQVYLNVSLQSKATSGVTQG
notes: Siglec-9, UniProtKB Q9Y336, C2_(1) and C2_(2) domains without the V domain, residues 145-348; The construct has a secretion signal for insect cell production before the tags; also called Siglec-9-EC-ΔV; source: baculovirus, Tn5 (High Five) insect cells, secreted into the medium, purified (Ni2+ resin, Superdex 200 gel filtration)

What was measured:
[1] = target: T1, human primary amine oxidase (hAOC3); test: SPR; hAOC3 immobilised; five to seven concentrations of Siglec-9-EC, R284S or R290S; kon and koff determined separately for every curve with Biaeval, Kd as their ratio; average without the highest and lowest value; details: both partners purified
[2] = target: T1, human primary amine oxidase (hAOC3); test: cell-based or functional assay
[3] = target: T1, human primary amine oxidase (hAOC3); test: SPR; hAOC3 immobilised; five to seven concentrations of Siglec-9-EC, R284S or R290S; kon and koff determined separately for every curve with Biaeval, Kd as their ratio; average without the highest and lowest value; details: both partners purified; remark: listed apart in the source
[4] = target: the molecule itself; test: SEC; Superdex 200 10/300 GL, 20 mM HEPES pH 7.4, 150 mM NaCl; size from the retention time against standard proteins
[5] = target: T1, human primary amine oxidase (hAOC3); test: SPR; BiacoreX; hAOC3 amine-coupled to a CM5 chip (10 000 RU); 20 ul of 0.3-31 uM Siglec-9-EC injected at 25 C; running buffer HBS (10 mM HEPES, 150 mM NaCl, pH 7.4) with 0.005% Surfactant-P20; apparent Kd from responses at the end of injection against concentration, steady state and one-to-one model assumed, non-linear regression (GraphPad); two protein preparations; details: both partners purified
[6] = target: T1, human primary amine oxidase (hAOC3); test: SPR; hAOC3 immobilised; one concentration (0.5 uM) of each Siglec-9 protein; relative binding normalised to the first control condition; details: both partners purified

Binder | maximal binding at the highest concentration [1] [RU] | amine oxidase activity of intact CHO-hAOC3 cells on [7-14C]benzylamine with 5 uM Siglec-9-EC added before the substrate (a similar increase with 1 uM in Fig 7C) [2] [fold] | Kd [3] [nM] | koff [3] [s⁻¹] | kon [3] [M⁻¹ s⁻¹] | stoichiometry N [4] | Kd [5] [nM] | binding relative to WT [6] [%]
B1 | 3120 | 2 | 1040 ± 870 | 0.00691 | 11200 | 2 | 4600 ± 930 | 
B2 | 1130 |  | 140 | 0.00373 | 32100 |  |  | 
B3 | 1760 |  | 530 ± 500 | 0.0031 | 11000 |  |  | 
B4 |  |  |  |  |  |  |  | < 10
